The values that follow come from article PMC3765157 (PLoS ONE, 2013).

This data set concerns the molecule itself. Briefly: AUC.

B1: PrP-like ectodomain of mouse ZIP5 (Mm_ZIP5, residues 20-207), secreted from mammalian cells, deglycosylated (domain or fragment)
chain: WVGGSVPNLGPAEQEQNHYLAQLFGLYGENGTLTAGGLARLLHSLGLGRVQGLRLGHHEPPTGRAAPTSGDNFTHRLQEPELSVDIWAGMPLGPSGWGDQEESKAPDLHGSGPSSLDLFQRLLLLDHSLADHLNEDCLNGSQLLVNFGLSPVAPLTPRQFALLSPALLYQIDSRVCIKTPAPAPPGDV
notes: also called ZIP5 ectodomain; PrP-like ZIP5 ectodomain
Usually stoichiometry N stands for the number of molecules, sites or subunits per partner or assembly. As for B1, the “stoichiometry N” value was about 2.
